1 molecule from US20170165339A1 (IMMATICS BIOTECHNOLOGIES, published 2017) can be followed below.

For the assay, the target named is HLA-A*02 (human). Briefly: UV peptide-exchange ELISA, yield grade.

SLTEVSLPL [SLTEVSLPL (SEQ ID NO: 45)] displayed a peptide exchange yield of 50 to 75%.
